Target: Stat1, unphosphorylated, endogenous in 293 T cells (human (endogenous in 293 T)) (UniProt P42224)
Sequence of UniProt P42224 (P42224 whole entry): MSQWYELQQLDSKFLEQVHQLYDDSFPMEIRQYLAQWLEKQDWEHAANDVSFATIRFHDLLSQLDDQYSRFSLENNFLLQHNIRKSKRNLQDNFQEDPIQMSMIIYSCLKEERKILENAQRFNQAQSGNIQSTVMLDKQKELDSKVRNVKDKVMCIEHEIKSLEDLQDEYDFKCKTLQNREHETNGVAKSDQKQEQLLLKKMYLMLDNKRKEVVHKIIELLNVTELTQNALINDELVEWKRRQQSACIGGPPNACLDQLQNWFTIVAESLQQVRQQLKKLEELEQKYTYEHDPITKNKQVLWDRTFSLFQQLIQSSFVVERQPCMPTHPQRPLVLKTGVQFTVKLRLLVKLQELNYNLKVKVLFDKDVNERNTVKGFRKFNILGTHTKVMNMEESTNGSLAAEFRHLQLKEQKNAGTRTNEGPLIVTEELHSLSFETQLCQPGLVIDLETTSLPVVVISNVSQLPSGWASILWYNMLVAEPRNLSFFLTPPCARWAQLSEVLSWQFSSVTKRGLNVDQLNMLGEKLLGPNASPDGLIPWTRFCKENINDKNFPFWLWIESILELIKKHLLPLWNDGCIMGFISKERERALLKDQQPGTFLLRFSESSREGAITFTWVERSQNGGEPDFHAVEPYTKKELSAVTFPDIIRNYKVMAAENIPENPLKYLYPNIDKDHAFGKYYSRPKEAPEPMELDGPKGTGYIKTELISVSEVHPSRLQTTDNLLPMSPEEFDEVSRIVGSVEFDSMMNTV

Row | Substance | percent of WT HPIV1-infected Vero cells positive for nuclear Stat1 after IFN-β (1,000 IU/mL, 60 min), confocal microscopy (untagged C proteins made by the virus; Stat1 of Vero cells) [%] | percent of F170S HPIV1-infected Vero cells positive for nuclear Stat1 after IFN-β (1,000 IU/mL, 60 min), confocal microscopy (untagged C proteins made by the virus; Stat1 of Vero cells) [%]
1 | myc-tagged HPIV1 C′ protein, wild type (C′^WT-myc) (natural protein) | 2 | 
2 | myc-tagged HPIV1 C′ protein with the F170S substitution (C′^F170S-myc) (natural protein) |  | 82

From PMC3280236
